Experimental data as given in the DeepSol protein solubility set.

Assay: soluble on expression in E. coli; label from the status in PepcDB or PDB records

| Sequence | soluble on expression in E. coli |
| --- | --- |
| MVAKDYPFYLTVKRANCSLEAPLGSGVAKDEEPSNKRVKPLSRVTSLANLIPPVKTTPLKRFSQTLQRSISFRSESRPDILAPRAWSRNATSSSTKRRDSKLWSETFDVCVNQVLTAKEIKRQEAIFELSQGEEDLIEDLKLAKKAYHDPMLKLSIMTEQELNQIFGTLDSLIPLHEELLSQLRDVRKPDGSTEHVGPILVGWLPCLSSYDSYCSNQVAAKALLDHKKQDHRVQDFLQRCLESPFSRKLDLWNFLDIPRSRLVKYPLLLREILRHTPNDNPDQQHLEEAINIIQGIVAEINTKTGESECRYYKERLLYLEEGQKDSLIDSSRVLCCHGELKNNRGVKLHVFLFQEVLVITRAVTHNEQLCYQLYRQPIPVKDLTLEDLQDGEVRLGGSLRGAFSNNERVKNFFRVSFKNGSQSQTHSLQANDTFNKQQWLNCIRQAKETVLSAAGQAGLLDSEGLVQGPGTENREPQGETKLEQMDQSDSESDCSMDTSEVSLECERMEQTDASCANSRPEESV | soluble |
| GPGSMDSSAGALPATAHSSSNGAASIENVFAGLAWVRDLTDASLAAERVHNAFMQVVFSFVPEYDQDDDDDSATHRFVTAAERQKEAERDRRLREEARRELENLRNEPLSDAGDSGQRSDDEEDQRSEEANLADFETNEFMHWIEAGASDRFAAPRHEIDEKGLRDDPRVQVGADGAWQDYGVRSECNMSGATQGGARGAASAPRW | soluble |
| MGSDKIHHHHHHMSKLNMKEWINEIIQKKEVVAMPIMTHPGIEMIGKTVRDAVTDGQVHYNAIKALSEKYPTAAATVIMDLTVEAEAFGAEIVFPENEVPSVVGRLLNDEEAIDKLEIPALNKGRIPQYLKANMLAAKTITDRPVFAGCIGPYSLAGRLYDMSEIMMLIYINPEAANSLLKKCSDFILRYCMALKATGVNGVVMAEPAAGLLSDEDCTQYSSVFIKEIVEKVQDDHFTVILHNCGNTGHCTKAMVATGAAAYHFGNKIDMVEALKEVPADALAMGNLDPVSLFKAATPEVMKKATLDLLEATRSYPNFVLSSGCDTPPHTPSENIDAFFAALNEFNNA | not soluble |
| MGSDKIHHHHHHMTREKSSYAVQTVEKALDILETLTDESRHATLPYLAEKLDLSRNKAFRLLATLESKGLVERDETSGVYRLGISSVELAQRLLNSTSLIRHAHPIMERLARKHDEAVYIAVLKGDEVLFLDMVDCEQAIKTAPLVGRRFPFFSNAAGKAIRALESTDLLDRFLKKRGRNGGPFDPAALQQELKAVREHGVAVDFDGLGEGIVSVAVAVRDYAGKVIGALTMLGPSFRMMASRMENEIIPSLREGAEILSMKFGYAKL | not soluble |
| MSLKRDELKLDYQRHQFYEYFNSIFNYDILDASISENIYLLRKTTDKLFYIEFENQLFETVMFLSMKTLVLDINSFSKEIGNKSEAYEQYIQQIKEENGINNFFDRYPYLLKQINREVRLIEESYSLLFDRFLKDLSELRSCFNITEPLSNVEFSLGDSHSQKQTVVKIEFKGKSIYYKPKSYDSYNILLELISLLKSNNIPSFSLPESLIKADYCWQLGVDYINSNNDEVKRIYFKYGVLAAFSEIFSITDLHMENVIVSGGDLYLIDVETFFQRKLNVQTNNFEGITVDTYQRIYETSLSNGLFPVQFEKNSAPNISGISGKGGKRKKGKYELINKNRGDMKLVKTDYFQEDSYNIPTLNEKMVEPLDYANEVIAGFRECYTFLMTQRAKVKKILYGFPKLRTRAIFRNTSDYGKFLQASTNPKYLFSEKKRENLFSILYESKHIEQFIVDSEIKDLMNGDIPYFSMDPNGNVYNSLGTVIGNLGKTTSLFDNIATLNDERMKFTCELIGIVLKKPIKHWERKDGKSYYFPSISSKQSFNEEILRQREGHHHHHH | soluble |
| MRGSHHHHHHTDPALRANITPFPTLSPATIDAINVIGQWLAQDDFSGEVPYQADCVILAGNAVMPTIDAACKIARDQQIPLLISGGIGHSTTFLYSAIAQHPHYNTIRTTGRAEATILADIAHQFWHIPHEKIWIEDQSTNCGENARFSIALLNQAVERVHTAIVVQDPTMQRRTMATFRRMTGDNPDAPRWLSYPGFVPQLGNNADSVIFINQLQGLWPVERYLSLLTGELPRLRDDSDGYGPRGRDFIVHVDFPAEVIHAWQTLKHDAVLIEAMESRSLRGLCGR | soluble |
| MVEKFDTIYDYYVDKGYEPSKKRDIIAVFRVTPAEGYTIEQAAGAVAAESSTGTWTTLYPWYEQERWADLSAKAYDFHDMGDGSWIVRIAYPFHAFEEANLPGLLASIAGNIFGMKRVKGLRLEDLYFPEKLIREFDGPAFGIEGVRKMLEIKDRPIYGVVPKPKVGYSPEEFEKLAYDLLSNGADYMKDDENLTSPWYNRFEERAEIMAKIIDKVENETGEKKTWFANITADLLEMEQRLEVLADLGLKHAMVDVVITGWGALRYIRDLAADYGLAIHGHRAMHAAFTRNPYHGISMFVLAKLYRLIGIDQLHVGTAGAGKLEGGKWDVIQNARILRESHYKPDENDVFHLEQKFYSIKAAFPTSSGGLHPGNIQPVIEALGTDIVLQLGGGTLGHPDGPAAGARAVRQAIDAIMQGIPLDEYAKTHKELARALEKWGHVTPV | soluble |
| MGSDKIHHHHHHMKLETIDYRAADSAKRFVESLRETGFGVLSNHPIDKELVERIYTEWQAFFNSEAKNEFMFNRETHDGFFPASISETAKGHTVKDIKEYYHVYPWGRIPDSLRANILAYYEKANTLASELLEWIETYSPDEIKAKFSIPLPEMIANSHKTLLRILHYPPMTGDEEMGAIRAAAHEDINLITVLPTANEPGLQVKAKDGSWLDVPSDFGNIIINIGDMLQEASDGYFPSTSHRVINPEGTDKTKSRISLPLFLHPHPSVVLSERYTADSYLMERLRELGVL | not soluble |
| MGLISKNRGPCQVCHNTETTRRHFGIISCTACAAFFRRSIGMQYLCTAENRCTISFDRKFFCRACRYASCLKAGMKLELIRKQKNNIYLRFPDAASNQQNLVRDSMSPATSEGGQSSSSKTDEESDDPEYSKILKMYHDDLLQYYVKEVKKMMAEKRRGCEKNTLQIKTISDLMLITARQSGPSMEECLRCPGVDMLEKEDVEALLRYYRFSNIWVDSVLIDSVLESAKGDSHTDTDDRLSRFIQEVKSTLGSSLAHLNLNIYEFAAFKALCIWKLRFYETSFAQKIIAHEHYEGVTGALRNYYENCTELADMEIAIRIGDITLQIVTVQNTYHEMVRLYYQIGMPL | not soluble |
| AIASFITNPSIFSGLKLSNAQRKVKSDLECIRKSKLFQRKRIVPERRRLGLVACGTEEDRTHQRSQWGGEDSDYFGRDPRKETEFWMEHAKEVLESKEVADAVEAHKKSGSSNLTEEQKAWLEFARSITPKPEDEE | soluble |
| MQRRGQLSRRLVNSADRDPSDENSLSRAPAPACTSRGTHVVETTSLKRHSKVLRSQDASGTAESVNSQTPDDEVDHTLWTLVREVSDAEAAFWALRNDSRLLGFVLRSQLLALVHDDSSVTDFLEAAQQPTDVGDVQAEFILCWVPVPGGPAILWRADYQRLIEEQVARRLSELEDPARKAALWGTTREQVERDTHIRAADGSCWLRTLPCPPSVIRALTQGQKALVQQVKRMGRYGRLPLHRAELLRLSRTCFSARFHILDAVGCGTLALDAQNTLSKEPYLCLPEVRTTNIVDSGEIGF | not soluble |
| MGSDKIHHHHHHMMEKVTQMIAMLIKAWKKESVSQIDTPPVPATPEPKQQSPNNSACLTERVNTFLQTHYDFRYNRLTEETEFRPLSGAKTEFRPIGKRELNTLCMEAHAEGISCWDKDVSRYIYSTQIGEYHPFRLYMDELPPWDGIDRLTPLARRVSALPLWVKGFHTWMLGLAAQWEGKTGVHANSLAPILISAEQGRMKSTFCKSLMPKVLQRYYMDNLKLTSEGQAERLLSEMGLINLDEFDKYAESKMPLLKNLMQMSSLHVCKAYQRNFRDLPRIASFIGTSNRSDLMSDPTGSRRFFCVEVEKPINCEGIEHEQIFAQLKAELADGCPYWFDKETEREIQQNNAPFYRTCPAEEVFLSCFRTSASAEEKYLRLSAADIYKELKKRNAAALRGFNPNHFAQVLIKMGVERKHTEYGNVYLVVRR | not soluble |
| GDYIYADSNNNGVYGDDNDYTFQKTSNKPKYNFGFQASAAWKGFDLSMVWAGAAGFSIYWGATTGYNAASTEWGSTIAQRVAENHYFYNPENPDDPRTNINAKYPRMAYIDGYVQNRHGNTTLWLYKGDYIKLKNLSLGYTLPKNWVSKIAMQNARVYVSAENLLTITGFEGQDPESATGMGYSPFRTIAIGANITF | not soluble |
